Assay results published in paper PMC5655547, “A General Strategy for Discovery of Inhibitors and Activators of RING and U-box E3 Ligases with Ubiquitin Variants” (Molecular Cell, 2017).

B1: GST-tagged RING domain of XIAP (XR, residues 434-C) (domain or fragment, UniProt P98170 434-497, looked up)
chain: EISTEEQLRRLQEEKLCKICMDRNIAIVFVPCGHLVTCKQCAEAVDKCPMCYTVITFKQKIFMS
notes: XIAP RING domain, residues 434 to the C terminus; also called GST-XR; HisGST-XR; source: E. coli BL21(λDE3) GOLD, purified (glutathione agarose); not shown: His tag, N-terminal, kept
B2: RING domain of XIAP (XR, residues 434-C), tag removed (domain or fragment, UniProt P98170 434-497, looked up)
chain: B1 chain
notes: XIAP RING domain, residues 434 to the C terminus; dimeric RING in the crystal; not shown: His-GST, N-terminal, cleaved

Legend:
[1] = molecular target: T1, UbcH5B S22R C85K-Ub (stable conjugate) (UniProt P62837 1-147; P0CG48 1-76, S22R | C85K, stably conjugated to Ub (C85K-Ub)); assay: SPR; Biacore T200, CM-5 chip, 25°C; GST-tagged E3 captured on anti-GST (1,000-2,000 RU); analyte in 25 mM Tris-HCl pH 7.6, 150 mM NaCl, 0.1 mg/ml BSA, 1 mM DTT, 0.005% Tween-20; steady-state affinity; GST alone subtracted; settings: both partners purified
T1 construct: UbcH5B with S22R and C85K; ubiquitin; mimic of UbcH5B~Ub; also called UbcH5B C85K S22R–Ub; source: made from purified Arabidopsis Uba1, UbcH5B C85K S22R and His-GST-Ub; purified (Ni2+ agarose, TEV cleavage, Source 15S, Superdex 75)

[2] = molecular target: the molecule itself; assay: crystal structure; XR and UbV.XR mixed 1:1.2; sitting drop, 0.1 M NaHEPES pH 7.5, 1.4 M tri-Na citrate; 1.57 Å

Binder | Kd [1] [µM] | stoichiometry N [2]
B1 | 12.2 | –
B2 | – | 2
